Assay results: paper PMC5870055, “Structural and Mechanistic Analysis of the Choline Sulfatase from Sinorhizobium melliloti: A Class I Sulfatase Specific for an Alkyl Sulfate Ester” (Journal of Molecular Biology, 2018)

B1: SmCS Δ12 (truncated mutant lacking 12 C-terminal amino acids) (domain or fragment, Sinorhizobium meliloti 1021, UniProt O69787 1-500, looked up)
chain: MTTGKPNILIIMVDQLNGKLFPDGPADFLHAPNLKALAKRSARFHNNYTSSPLCAPARASFMAGQLPSRTRVYDNAAEYQSSIPTYAHHLRRAGYYTALSGKMHFVGPDQLHGFEERLTTDIYPADFGWTPDYRKPGERIDWWYHNLGSVTGAGVAEITNQMEYDDEVAFLANQKLYQLSRENDDESRRPWCLTVSFTHPHDPYVARRKFWDLYEDCEHLTPEVGAIPLDEQDPHSQRIMLSCDYQNFDVTEENVRRSRRAYFANISYLDEKVGELIDTLTRTRMLDDTLILFCSDHGDMLGERGLWFKMNFFEGSARVPLMIAGPGIAPGLHLTPTSNLDVTPTLADLAGISLEEVRPWTDGVSLVPMVNGVERTEPVLMEYAAEASYAPLVAIREGKWKYVYCALDPEQLFDLEADPLELTNLAENPRGPVDQATLTAFRDMRAAHWDMEAFDAAVRESQARRWVVYEALRNGAYYPWDHQPLQKASERYMRNHMNLD
notes: Choline sulfatase (BetC) of S. meliloti 1021 with Thr501 replaced by a stop codon, so that the last 12 residues (501-512) are missing; Predominantly a tetramer (87%), with some dimer (11%) and monomer (2%); Made from the pASK-IBA5plusSmCS WT plasmid by QuikChange; source: E. coli BL21(DE3) expressing MtbFGE, purified (Q-Sepharose, Strep-Tactin, Superdex 200)
B2: Sinorhizobium meliloti choline sulfatase wild type (enzyme, Sinorhizobium meliloti 1021, UniProt O69787 1-512, looked up)
chain: MTTGKPNILIIMVDQLNGKLFPDGPADFLHAPNLKALAKRSARFHNNYTSSPLCAPARASFMAGQLPSRTRVYDNAAEYQSSIPTYAHHLRRAGYYTALSGKMHFVGPDQLHGFEERLTTDIYPADFGWTPDYRKPGERIDWWYHNLGSVTGAGVAEITNQMEYDDEVAFLANQKLYQLSRENDDESRRPWCLTVSFTHPHDPYVARRKFWDLYEDCEHLTPEVGAIPLDEQDPHSQRIMLSCDYQNFDVTEENVRRSRRAYFANISYLDEKVGELIDTLTRTRMLDDTLILFCSDHGDMLGERGLWFKMNFFEGSARVPLMIAGPGIAPGLHLTPTSNLDVTPTLADLAGISLEEVRPWTDGVSLVPMVNGVERTEPVLMEYAAEASYAPLVAIREGKWKYVYCALDPEQLFDLEADPLELTNLAENPRGPVDQATLTAFRDMRAAHWDMEAFDAAVRESQARRWVVYEALRNGAYYPWDHQPLQKASERYMRNHMNLDTLEESKRYPRGE
modifications: Cys54 partially converted into formylglycine (fGly); modelled as cysteine and formyl glycine at 50% occupancy each
notes: Choline sulfatase (BetC) of S. meliloti 1021; the whole gene (positions 1491-3029 of GenBank U39940) amplified from genomic DNA and cloned into pASK-IBA5plus; the C-terminal region is printed as residues 449-512; Protomer Mw ~61 kDa; also called SmCS; SmCS WT; source: E. coli BL21(DE3) expressing MtbFGE, purified (Q-Sepharose, Strep-Tactin, Superdex 200)
B3: SmCS Δ23 (truncated mutant lacking 23 C-terminal amino acids) (domain or fragment, Sinorhizobium meliloti 1021, UniProt O69787 1-489, looked up)
chain: MTTGKPNILIIMVDQLNGKLFPDGPADFLHAPNLKALAKRSARFHNNYTSSPLCAPARASFMAGQLPSRTRVYDNAAEYQSSIPTYAHHLRRAGYYTALSGKMHFVGPDQLHGFEERLTTDIYPADFGWTPDYRKPGERIDWWYHNLGSVTGAGVAEITNQMEYDDEVAFLANQKLYQLSRENDDESRRPWCLTVSFTHPHDPYVARRKFWDLYEDCEHLTPEVGAIPLDEQDPHSQRIMLSCDYQNFDVTEENVRRSRRAYFANISYLDEKVGELIDTLTRTRMLDDTLILFCSDHGDMLGERGLWFKMNFFEGSARVPLMIAGPGIAPGLHLTPTSNLDVTPTLADLAGISLEEVRPWTDGVSLVPMVNGVERTEPVLMEYAAEASYAPLVAIREGKWKYVYCALDPEQLFDLEADPLELTNLAENPRGPVDQATLTAFRDMRAAHWDMEAFDAAVRESQARRWVVYEALRNGAYYPWDHQPLQKAS
notes: Choline sulfatase (BetC) of S. meliloti 1021 with Glu490 replaced by a stop codon, so that the last 23 residues (490-512) are missing; Predominantly a dimer (78%); source: E. coli BL21(DE3) expressing MtbFGE, purified (Q-Sepharose, Strep-Tactin, Superdex 200)

Target: the molecule itself
Assay: SEC-MALS; 100 uL of 2 mg/mL protein on Superdex 200 10/300 HR in 100 mM Tris-HCl pH 8.0, 150 mM NaCl, 0.5 mL/min; multi-angle light scattering and differential refractive index detectors

Protein | stoichiometry N
B1 | 4
B2 | 4
B3 | 2
